{"source": "the nanobody polyreactivity screen of Harvey et al. (2022)"}
{"experiment": "yeast display, Sf9 membrane polyspecificity reagent, FACS + sequencing; frameworks hold sequencing errors", "how_it_was_run": "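Synthetic nanobody libraries on Saccharomyces cerevisiae BJ5465 were galactose-induced for 36–48 hours, stained 1 hour at 4 °C with 10% biotinylated, detergent-solubilized Sf9 membrane reagent and enriched on streptavidin microbeads. FACS then separated cells into low and high (top ~1%) gates by anti-HA (expression) and streptavidin (reagent binding) fluorescence. Genes were colony-PCR amplified, MiSeq 2 × 250 sequenced and CDR-length filtered. A clone's polyreactivity label is that of its gate of origin.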"}
{"sequence": "QVQLVESGGGLVQAGGSLRLSCAASGRIFQYYAMGWYRQAPGKERELVAAISGRGTSTYYADSVKGRFTISRDNAKNTVYLQMNRLKPEDTAVYYCNADINYKSYFIHTFTIIPYGYWGQGTLVTVSS", "polyreactivity (PSR sort gate)": "low polyreactivity"}
{"sequence": "QVQLVESGGGLVQAGGSLRLSCAASGRIFWGYDMGSYRQAPGKQTEFVAAISSGGGRTYYADSVKGRFTISRDNAKNPVYLPMNSLKPEDTAVYYCNAELNWYYYIHLDYWGQGTQVTVSS", "polyreactivity (PSR sort gate)": "low polyreactivity"}
{"sequence": "QVQLQESGGGLVRAGGSLRLSCAASGYISTSIAIGWYRQAPGKERELVASFGAGAITNYADSVKGFTISRDNGKKTVYLQMNSLKPVDTALYYCAVYHGDRGYYSYWGQGTQVTVSS", "polyreactivity (PSR sort gate)": "low polyreactivity"}
{"sequence": "QVQLVESGGGLVQAGGSLRLSCAASGITFRTYAMGWYRQAPGKERELVAAISGSSTSTYYADSVKGRFTISRDNAKNTVYLQLNSLKPEDSAVYYCAAGYRVSVYRYYYWGQGTQVTVSS", "polyreactivity (PSR sort gate)": "high polyreactivity"}
{"sequence": "QVQLEESWGCLVQAGGSLRLSCAASGYTFVNYAMGWSRQAPGKEREFVAAISRSGGSTYYADSVKGRFTISRDNAKNTDYLQMHSLKPEDTAVYYCALRGYPPYKYYYWGQGTQVTVSS", "polyreactivity (PSR sort gate)": "high polyreactivity"}
{"sequence": "QVQLVESGGGLVQAGGSLRLSCAASGITFYPYAMGWYRQAPGKERELVAAISWRSGSTNYADSVKGRFTISRDNAKNTVYLQMNSLKPEDTAVYYCNFDKVTSWYYYGYWGQGTQVTVSS", "polyreactivity (PSR sort gate)": "low polyreactivity"}
{"sequence": "QDQLVDSGGGLVQAGGSLRLICAASGYIIHDNAMGWYRQAPGKERELVAAINRGGSTHYADSVKGRFTISRDNAKNTVYLQMNSLKPEDTAVYYCAAKDGRSYYDRTPMDYWGQGTQVTVSS", "polyreactivity (PSR sort gate)": "low polyreactivity"}
{"sequence": "QVQLVESGGGLVQAGGSLRLSCAASGRTFNYYAMGWYRQAPGKERELVASIRYSTGSTYYADSVKGRFTISRDNAKNTVYLQMNSLKPEDTAVYYCAARRYARASRYDYWGQGTQVTVSS", "polyreactivity (PSR sort gate)": "high polyreactivity"}
{"sequence": "QVQLVESGGGLVQAGGSLRLSCAASGRIFYYYAMGWYRQAPGKEREFVAAISGSGGTTYYADSVKGRFTISLDNAKNTVYLQMNSLKPEDTAVYYCNAKAVRGRYVWFDYWGQGTQVTVSS", "polyreactivity (PSR sort gate)": "high polyreactivity"}
{"sequence": "QVQLVETGGGLVQAGGSLRLSCAASGSTFVYNAMGWYRQAPGKERELVASITRSGSSTYYADSVKGRFTISRDNAKNTVYLQMNSLKPEDTAVYYCAVRYSVLSNYRYYYWGQGTQVTVSS", "polyreactivity (PSR sort gate)": "low polyreactivity"}
{"sequence": "QVQLVESGGGLVQAGGSLRLSCAASGRIFYYNTMGWYRQAPGKERELVAAISRSGGSTYYADSVKGRFTISRDNAKNTVYLQMNSLKPEDTAVYYCAAVTHRYGNSEFDYWGLGTQVTVSS", "polyreactivity (PSR sort gate)": "high polyreactivity"}
{"sequence": "QVQLVESGGGLVQAGGSLRLSCAASGSISWLYAMGWYRQAPGKEREFVAAISESGDTYYADSVKGRFTISRDNAKNTVYLQMNSLKPEDTAVYYCAATRPDGVTYDYWGQGTQVTVSS", "polyreactivity (PSR sort gate)": "low polyreactivity"}
{"sequence": "QVQLVESGGGLVQAGGSLRLSCAASGTICYPYAMGWYRQAPGKERELVASISWSGGSTRYADSVKGRFTISRDNAKNTVYLQMNSLKPEDTAVYYCAARYILSKYGSGVRYNYWGQGTQVTVSS", "polyreactivity (PSR sort gate)": "high polyreactivity"}
{"sequence": "QVQLVESGGGLVQAGGSLRLSCAASGSIFQGYAMGWYRQAPGKERELVASISRGGSTNYADSVKGRFTISRDNAKNTVYLQMNSLKPEDTAVYYCAARAYWYGRYGYWGQGTQVTVSS", "polyreactivity (PSR sort gate)": "high polyreactivity"}
{"sequence": "PVQLVESGGGVVQAGGSLRLSCAASGSTFEYYAMGWYRQAPGKERELVAAITRRGGSTYSADSVKGRFTISRDNAKNTVYVQMNSLKPEDTAVYYCAAKGFPRSGYPYQAQHMYYWGQGTQVTVSS", "polyreactivity (PSR sort gate)": "low polyreactivity"}
{"sequence": "QVQLVESGGGLVQAGGSLRLSCAASGYTFAANAMGWYRQSPGKERELVAAITSGGGSTYYADSVKGRFTISRDNAKNTVYLKMNSLNPEDTAVDYCAALQSHGVDFDNWGQGTQVTVSS", "polyreactivity (PSR sort gate)": "low polyreactivity"}
{"sequence": "QVQLVESGGGLVQAGGSLRISCAASGRIFGYYGMGWSRQAPGKERELVAAITSNAGRTYYADSVKGRFTISRDNSKNTVYLQMNSLKPEDTAVYYCAATSKGSYGRQGYDYWGQGTQVTVSS", "polyreactivity (PSR sort gate)": "low polyreactivity"}
{"sequence": "QVQLVESGGGLVQAGGSLRLSCAASGSTFPQYVMGWYRQEPGKERELVAAITKSGGRTYYADSVKGRFTISRDNAKNTVYLQMNSLKPEDTAVYYCAAVRWDISRFRYYSWGHGTQVTVSS", "polyreactivity (PSR sort gate)": "high polyreactivity"}
{"sequence": "QVQLVESGGGLVQAGGSLRLSCAASGITFSYNAMGWYRQAPGKERQLVAAITWSGDSTYYADSVKGRFTISRDNAKNTVYLQMNSLKREDTAVYYCNARYLRLRYPYTDEYNYWGQGTQVTVSS", "polyreactivity (PSR sort gate)": "low polyreactivity"}
{"sequence": "QVQLVESGGGLVQAGGSLRLSCAASGYTFRNYAMGWYRQAPGKERELVAAISTRGVSTYYADSVKGRFTISRDNAKNTVYLQMNSLKPEDTADYYCAAAGGRYSRAAYDYWGQGTQVTVSS", "polyreactivity (PSR sort gate)": "low polyreactivity"}
{"sequence": "QVQLVESGGGLVQAGGSLRLSCAASGSTFRFNAMGWYRQAPGKEREFVAAIRFTGGSTYYADSVKGRFTISRDNAKNTVYLQMNSLKPEDTAVYYCNNADEYSTVEYDYWGQGSQVTVSS", "polyreactivity (PSR sort gate)": "low polyreactivity"}
{"sequence": "QVQLVESGGGLVQAGGSLRLSCAASGSIFVVNAMGWYRPAPGKERELVAAISDSGDRTYYADSVKGRFTISRDNAKNTVYLLMNSLKPEDTAVYYCNTRYSPGYQGTEVDYWGQGTQVTVSS", "polyreactivity (PSR sort gate)": "low polyreactivity"}
{"sequence": "QVQLVESGGGLVQAGGSLRLSCAASGSTFYEKAMGWYRQAPGKEREFVAAITQSGGSTYYADSVKGRFTISRDNAKNTVYLQMNSLKPEDTAVYYCAKVWPKHYRSLGYGYWGQGTQVTVSS", "polyreactivity (PSR sort gate)": "low polyreactivity"}
{"sequence": "QVQLVESGGGLVQAGGSLRLSCAASGFTLEDYTMGWYRQAPGKERELVARITSGGSTNYADSVKGRFTISRDNAKNTVYLQMKSLKPEDTAVYYCNARYAWINMDYWGQGTQVTVSS", "polyreactivity (PSR sort gate)": "low polyreactivity"}
{"sequence": "QVQLVESGGGLVQAGGSLRLSCAASGSTFSWYVMGWYRQAPGKERELVAAISYRGGRTYYADSVKGRFTISRDNAKNTVYLQMNSLKPEDTAVYYCAARGVVDAGRTNRPYDYWGQGTQVTVSS", "polyreactivity (PSR sort gate)": "low polyreactivity"}
{"sequence": "QVQLVESGGGLVQAGGSLRLSCAASGRTFYSNAMGWYRQAPGKERELVAVIRWNGGSTYADSVKGRFTISRDNAKNTVYLQMNSLKPEDTAVYYCAVTRYHSPPRYYYWGQGTQVTVSS", "polyreactivity (PSR sort gate)": "low polyreactivity"}
{"sequence": "QVQLVESGGGLVQAGGSLRLSCAASGITFTEYAMGWYRQAPGKERELVAAITGSGTSTYYADSVKGRFTISRDNAKNTVYLQMNSLKPEDTAVYYCAARTRGTAYNYWGQGTQVTVSS", "polyreactivity (PSR sort gate)": "high polyreactivity"}
{"sequence": "QVQLVESGGGLVQAGGSLRLSCAASGSTFYYYAMGWSRQAPGKERELVAAITRGGSTYYADSVKGRFTISRDNAKNTVYLQMNSLRPEDTAVYYCAAKSAYHGLVGGYYYWGQGTQVTVSS", "polyreactivity (PSR sort gate)": "high polyreactivity"}
{"sequence": "QVQLVESGGGLVQAGGSLRLSCAASGSIFSSYAMGWYIQAPGKEMELVAGITWGGASTYYADSVKGRFTISRDNAKNTVYLQMNSLKPEDTAVYYCNRRAWVYYAPFTVIVLYGRDYWGQGTQVTVSS", "polyreactivity (PSR sort gate)": "low polyreactivity"}
{"sequence": "QVQLVESGGGLVQAGGSLRLSCAASGSTLGHNAMGWYRQAPGKERELVAAITSSGGRTYYADSVKGRFTISRDNAKNTVYLQMYSLKPEDTAVYYCAAKLHGYYDVFGQSHRTYDYWGQGTQVTVSS", "polyreactivity (PSR sort gate)": "high polyreactivity"}
{"sequence": "QVQLVESGGGLVQAGGSLRLSCAASGFILPTYAMGWYRQAPGKEREFVAAIRTSTGATYYADSVKGRFTISRDIAKNTVYLQMTSLKPEDNAVYYFPADAPWSEWLWADIVGYEYWGQGTQVTVSS", "polyreactivity (PSR sort gate)": "low polyreactivity"}
{"sequence": "QVQLEESGGGLVQAGGSLRLICAASGSTFYPNAMGWYRQAPGKERELVAAITDSVGTTNYADSVKGRFTISRDNAKNTVYLQMNSLKPEDTAVYYCAKVKSYWNGYRYYYWGHGTQVTVSS", "polyreactivity (PSR sort gate)": "low polyreactivity"}
{"sequence": "QVQLVESGGGLVQAGGSLRLSCAASGRIYGVYVMGWYRQAPGKERELVAAISWSGSHTYYADSVKGRFTISRDNAKNTVYLQMNSLKPEDTAVYYCKADSYPDYTGPGLDWYDYWGQGTQVTVSS", "polyreactivity (PSR sort gate)": "low polyreactivity"}
{"sequence": "QVQLVESGGGLVQEGGSLRLTCAASGSTFSDYAMGWYRQAPGKERELVAAISKRGGRTYYADSVKGRFTISRDNEKNTVYLQMNSLKPEDTAVYDCAADLPNAKWYGYDYWGQGTQVTVSS", "polyreactivity (PSR sort gate)": "high polyreactivity"}
{"sequence": "QVQLVESGGGLVQAGGSLRLSCDASGRTIRHNAMGWYRQAPGKERELVAAISKRGGRTYYADSVKGRFTISRDNAKNTVYLQMNSLKPEDTAVYYCATRSSGYSLGDYWGQGTQVTVSS", "polyreactivity (PSR sort gate)": "high polyreactivity"}
{"sequence": "QVHLVESGGGLVQAGGSLRLTCAASGFIFEYNAMGCYRQAPGKEREFVAAITSSGGSTYYADSVIGRFTISRDNAKNTVYLQMNSLKPEDTAVYYCARVRRSAYYKDYYYWGQGTQVTVSS", "polyreactivity (PSR sort gate)": "high polyreactivity"}
{"sequence": "QVQLVESGGGLVQAGGSLRLSCAASGFTFGNYAMGWYRQAPGKERELVAAISSRGGSTYYADSVKGRFTISRDNAKNSVYLQMNSLKPEDTAVYYCNALRLEVDMGYWGQGTQITVSS", "polyreactivity (PSR sort gate)": "high polyreactivity"}
{"sequence": "QVQLVESGGGLVQAGGSLRLSCAASGRIYNRNAMGWYRQAPGKERDLVAAITYRGGSTYYADSVKGRFTISRDNAKNTVCLQMNSLKPEDTAVYYCAKDVKQWSVSASYRFGYWGQGTQVTVSS", "polyreactivity (PSR sort gate)": "high polyreactivity"}
{"sequence": "QVQLVESGGGLVQAGGSLRLSCAASGRIFGTNDMGWYRQAPGKETELVAAIRATSGSTYYADSVKGRFTISRDNAKNTVYLQMNSLKPEDTAVYYCAAEIWRYNSYIKYWHRLDYWGQGTQVTVSS", "polyreactivity (PSR sort gate)": "high polyreactivity"}
{"sequence": "QVQLVESAGGLVQAGGSLRLSCAASGPTFAYNDMGWSRQAPGKERELVAAISWSDGTTYYADSVKGRFTISRDNAKNTVYLQMNSLKPEVTAVYYCAGESYPSEVASYVSEYDYWGQGTQVTVSS", "polyreactivity (PSR sort gate)": "low polyreactivity"}
{"sequence": "QVQLVESGGGLVQAGGSLRLICAASGSIFSTNTKGWYRQAPGKERELVAAISISGGSTHYADSVKGRFTISRDNAKNPVYLQMNSLKPEYTAVYYCAADLWYYAYSYDYWGRGTQVTVSS", "polyreactivity (PSR sort gate)": "high polyreactivity"}
{"sequence": "QVQLVESGGGLVQAGGSLRLSCAASGRTFVRNAMGWSRQAPGKERELDAAITSGGSTYYADSVKGRFTISRDNAKNTVYLQMNSLKPEDTAVYYCAAVDRRYGPTYKMGYWGQGTQVTVSS", "polyreactivity (PSR sort gate)": "high polyreactivity"}
{"sequence": "QFQLVESGGGLVQAGGSLRLSCAASGRTFSWSAMGWYRQAPGKERELVAAISASGGRTYYADSVKGRFTISRDNANNSVYLQMNSLKPEDTAVYYCAKVVKKIEFDYWGQGTEVTVSS", "polyreactivity (PSR sort gate)": "high polyreactivity"}
